These results are taken from patent publication WO2015037992A1 (dated 2015).

The test has as its target T1, HPeV1 VP1 (recombinant capsid protein, his-tag) (human parechovirus 1 (Harris), UniProt Q66578 543-773).
T1 sequence: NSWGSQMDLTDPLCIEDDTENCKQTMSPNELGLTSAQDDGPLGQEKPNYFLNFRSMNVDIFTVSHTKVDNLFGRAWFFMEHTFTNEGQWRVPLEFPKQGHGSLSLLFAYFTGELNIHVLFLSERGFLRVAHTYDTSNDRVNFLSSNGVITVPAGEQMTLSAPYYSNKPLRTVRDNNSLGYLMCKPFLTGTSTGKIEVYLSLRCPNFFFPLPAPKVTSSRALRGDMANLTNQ

B1: AM18 (antibody, V domains shown)
VH: QVQFMQSGAEVKKPGASVKVSCKASGDTFSNFAVHWVRQAPGQRPEWMGWVNAGDSNLKYSQRFQGRLIITRDTFASTVYLDLSSLTSKDTAVYYCAGGNFGGNSATFDYWGQGTLVTVSS
VL: EIVLTQSPGTLSLSPGERATLSCRASQSVSDNYLAWYQQKPGQAPRLLIYGASHKSTGIPDRFSGSGSGTDFTLTISRLEPEDFAVYYCQQYGGSPLTFGGGTKVEIKR
As usually defined, the Kd is a measure of binding affinity in units of concentration. A word on the koff: it is the rate constant with which the complex falls apart. A word on the kon: it is the second-order rate constant of association. On to B1, for which the dissociation constant Kd stood at 0.0115 nM, the koff worked out at 2.3e-06 s⁻¹ and the on-rate constant (kon) worked out at 208000 M⁻¹ s⁻¹.
